# B1: PEDF -92 target site (dsDNA)
# DNA 1: GGATGGTGGTGCAGCAGTG
# DNA 2: CACTGCTGCACCACCATCC
# B2: OCT4 +181 target site (dsDNA)
# DNA 1: GGAGGGCCAGGAATCGGGC
# DNA 2: GCCCGATTCCTGGCCCTCC
# Key:
# [1] = target: ZF6961 (ZF(PEDF))-p300 (Artificial Sequence); assay: cell_activity; PEDF mRNA activation in HEK293, 72 h; conditions: tags: fusion to human p300 HAT domain aa 1284-1673
# Protocol: Expression vectors encoding ZF(PEDF)-p300 or ZF(PEDF)-p65 were transfected into HEK 293 cells. Control cells were transfected with vectors encoding GFP, p65 (no ZF), or p300 (no ZF). Total RNA was isolated 72 hours later, and the levels of PEDF mRNA and cyclophilin A endogenous control mRNA were measured by RT-PCR. The PEDF/cyc ratio was used for normalizing PEDF expression.
# [2] = target: ZF(Oct4+181)-p300 (Artificial Sequence); assay: cell_activity; OCT4 mRNA activation in HEK293, 48 h; H3K18 and H3K27 acetylation also increased by ChIP (FIG. 1); conditions: tags: C-terminal fusion to human p300 HAT domain aa 1284-1673 (NM_001429)
# Protocol: Expression vectors encoding ZF(Oct4+181)-p300 or one of the control fusion proteins described above were transfected into HEK 293 cells. Control cells were transfected with vectors encoding GFP, p65 (no ZF), or p300 (no ZF). After 48 hrs, the cells were harvested and total RNA was isolated. The levels of OCT4 mRNA and cyclophilin A (i.e., PPIA) endogenous control mRNA were measured by real time reverse transcriptase polymerase chain reaction (RT-PCR) (Life Technologies, Carlsbad, Calif.). The OCT4/cyc ratio was used for normalizing OCT4 expression.
# Sequence of ZF(Oct4+181)-p300 (Artificial Sequence) (chain, as listed by the source): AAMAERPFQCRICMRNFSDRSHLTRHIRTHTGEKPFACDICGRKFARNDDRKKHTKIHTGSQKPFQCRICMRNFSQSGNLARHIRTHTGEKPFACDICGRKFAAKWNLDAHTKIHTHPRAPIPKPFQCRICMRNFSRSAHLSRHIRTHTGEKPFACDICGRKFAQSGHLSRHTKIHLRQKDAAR
# Sequence of ZF6961 (ZF(PEDF))-p300 (Artificial Sequence) (chain, as listed by the source): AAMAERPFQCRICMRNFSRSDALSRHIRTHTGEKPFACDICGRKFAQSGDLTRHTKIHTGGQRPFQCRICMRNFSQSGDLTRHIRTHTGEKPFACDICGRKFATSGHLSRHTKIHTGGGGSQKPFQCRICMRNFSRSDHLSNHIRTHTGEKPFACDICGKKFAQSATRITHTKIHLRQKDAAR
binder,measurement,setting,value
B1,activity,[1],> 2.5 fold
B2,activity,[2],> 25 fold

# From patent US20150079657, “TARGETED HISTONE ACETYLATION” (SIGMA-ALDRICH CO. LLC, published 2015)
